In the domain aggregation screens of Martell et al. (2025):

experiment: soluble fraction after stress (log2 fold change); higher = more stays soluble; pooled small domains, quantitative proteomics; conditions: stress: 50 degC
In short: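 The stress applied to every library was 50°C. These custom libraries of small protein domains were pooled and measured at high throughput with quantitative proteomics as the read-out. Aggregation propensity is expressed as the base-two logarithm of the fold change in how much of each protein remains soluble. The higher the value, the more of that protein stays in solution.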

Sequence	soluble fraction (log2)
HMADRDKYIIMGQQLLRAAFEHFGKKATDKALENAANKLRISDVPELYARLGSAELQPRDVINVIFPD	-0.0534
HMIMTEKEKKLLNRYIMHDTIHKLYHEQNKSMRWIADNLGINFRTVQKYLDMDSGEFQKYSESISNR	-0.48
HMKIVQDIAFSDFLNEVEKDNVLDVNIKGDLINGNLADGRKFKTYTPYDPNLIEKLSNKNVTINVEPYN	0.198
HMEYKTGIINTNKVRVRNAADADATVIFAINKDIKVKILAEENGFYKIGVSVKNRGNGEDLIGFVKKELIT	-0.631
HMAEVPSLIGKSLDAAKQAIIDAGFKVGSVSYDNSDSYGKGQVMWQQYEPSTKVKKGSSISIKVSKGS	0.00591
HMAEMRYLDQIYEVNVPLPDLSLEDGDLLARWAVNFHQRYEELFSYRQSDQEIRLVTLRVTVLGELP	-0.653
HMLLLASTPAEQTIIQLLAEGWRDGDQLQQRSHLSAADFSTALTMLEVNGSIKPLGANHWALTH	-0.919
HMSGSILVQVSATDLNIRKGPGTNYGTTGKYTGKGTFTIVETRSGQGSNAGWGKLKSGAGWISLDYAKR	-1.38
HMTLTIEDGYVNAKLKTTVEGLAEDSTIKVDSIEYTNAGKNDILTVFVEDKPYRVEKYKINIAPEDS	0.0185
HMLLPGEELRVMIIQEGKEYGQGVGYLDDGTMVVVEDGQRALNRTENVVVTKVLQTTAGRMIFAK	-0.631
HMEAEQLEAIRSALQQLSDMNRTVFNLHVVDGYKHEEIAAMLNITTGTSKAHLHRAKKRLRELID	-0.975
HMSNLNHSFQYKKNIGRKISLTYLGRDNESISKIYELIDSNDSGILVKNKNVEIFIHYEKIVSAKIKVS	-0.943
HMYNTDAMGVRIGELRRAKGLTQEAFAKTLGISAQAVSKWETGLGFPDISLLPMIAETLGTKIETLFGAE	-0.0826
HMQFLKPQDVLFLLKLVVLKGPASIFPAVPESLGLSKAEVHNSAKRVRGARLLPHDSWNPLRKNLLEFL	-0.148
HMNFKNMIDSLSGILFKKDPSAAIIDIGGVRLKVFITVGSYEQLPAKGEQVEILTYLHVKEDILNLYG	-0.242
HMNYTQAQIDRANAVSLEDFLRTQGETLIKSGREYRWKEHDSLTVRGNKWFRHSQSKGGYPIDFVMEFTA	0.0368
HMDIYLTAFKTTSNQVTLNGIARSDLIISEFMRDIRDAKLFGEPVLQVIQNKNLNNVQARVFELVVPL	-0.263
HMGYDSYDADTIPKLKIGSIVEHPKFGEGSIISKAGAEVTIAFKIKGVKKINLEYTSIKVLK	-0.935
HMDGQPLSERQQEILRWVAEGLSNREIGERLNITPNTVRDHLSEVMRRLEVSNRTSAVSTAFHLGLLP	-0.115
HMELPPLEPIDRILVVQQPINIREQPGVLAKKIGRVSSGETLTILAKVSGQDWYFVETDNGGRGYVFKRV	-0.555
HMHLKRQEAINLGAYLLGAELRIHRLSLEELGSERIDEMLAAINYKTLDDLLADIGLGNRPARFVARQLG	-1.53
HMGVQKGKDNALAVQQWIAERDATGDFGEYERRGIINRSALFDELGIPRSSMGSNDQIRQMIEAADVRWF	-0.189
HMSNGFFELKTSQQDELIDLIDSHTNFVRTKIEGELITAFLKLPMDAEEFNKLLFTNGIILSHLVKRK	-0.461
HMTNEWRKILSNLNGKYQIVMELFYVDGFSTKEIARMLHITEVNVRSRMVRGRKQLEQILTVR	-0.15
HMAPMYGEFENVRLTDAQLDKLNARFPPEQVQREIEALSGYMRSKGKRYADHYATLLNWLRRDFPP	-0.202
HMSTPLVATLRKRIIDGHYPPGERLAEIPVAEAFGVSRTPVRLAFRTLEQEGLLEKAGKRGYAVRA	0.0325
HMYINVQNARTIASFRSSLWRMHRDFTNQGYITADGLKTFLEMGKLYEDAGGNDIYHSKLLPEITALEIKY	-0.76
HMPFTLDGVNEGSRNDQAARMSGYLISKNLNMDFIKFFMQSWNRQNSPPLSQREINSVVDNVKRTHDRKNK	-1.18

Sequence	soluble fraction (log2)
HMTDWNTVEKETLSAIQKVLSGQASWIDLSPADHSIRHMQHEMVQQAGLISQSYGKEPMRRIRIYQNP	0.117
HMGNRWENLISNKMIDDVDEELLRKYIAQAHDAGRIAISYTDRKTVLNQLELTDGDRLLNAGKVLFSD	-0.094
HMDSSITLMRMYIPKGHNWENKLISDVSMPTNSLALMIKRNGTTIIPKGDTMILAKDTLILSVPSYEPS	-1.13
HMDADRILHKTLKPRELEIYQLIKAYLEEHSQIANAKVQEISGLSEATTRRYLNIFVEFGLLKTS	-0.0476
HMEQYYVFFAGGMTIGTKEWYESILPENIATSYDDILEGKMMPASLEQIEFYNSHKDYDLYHLFYML	-4.11
HMNQIFAPMPGLVLEVKLSEGDVVAEGESAIILEAMKMENIIKSPINGIVKKVHVKKGQTIEKNTLIISFK	-1.15
HMQTGYHVRITASTLNVRRDHSASSAVATQVRRGEVYTIVDEYNNGGTLWGKLKSGAGWIALKYTQS	-1.81
HMPTITSPMVGTFYRAPSPGAAPFIEVGDTVKKGQVIGIIEAMKLLNEVEADKDGVVQAFAAENGEL	0.262
HMVWTAGEVVERIRERVGHPATIRELMQVLTIPPEDRHRFRRRIMQLVEAGELIRIRGNRYGLAD	-2.3
HMAEEFESMTEARRLELARLVDSRGFVRVTDAAEELGVSDVTIRGDLSELERRGLLTRVHGGAMPVT	0.0215
HMENLIEELTAKNKEYIHSVTKQLILVGKSDEEVKEILNDILPQIIEGQKSGIIARKLLGAPTEFVSQYQP	0.011
HMNASVIADLFRQTGASVMIHGHTHRPDIHALEANGDAAFRAVLGAWHTEGSMIRVTQDDVTLIAFP	0.0376
HMKQQFTREQIIELMYKAYKKHKKKLNRVEIKKEKALPSYVTIGRYLNETSIKKIWEIVLSEKE	-0.43
HMVLQHHTATKALSYHTSASASAAVKGSFARGDSVQVVQGGSQTADGAKWHKVKVGSSYYYAAAEHLTP	≥ 0.62
HMKISQSRKAGKLVLESELKRGGVSLDQYRGGRMSRILELIGVKSLNELLTDLGTGKKTGALVAERFFSGL	-0.444
HMAQQEMEIIPLRHRQVEQVMPTLRPLLEPGAALSGMNNQLILRASRKNREEIKQALAVIDT	0.172
HMRRTVIVTAAHAEIRERPDANAPLVFSAEQKVSLDYQETAPGGWVKVRHRDGQSGYVRTNQI	-0.688
HMNVKVSVDDIARPGLMASGRVTFADGNRGMWYVDEMGRLGIDPEVEGYQPSEADIQAFQRELQSVMES	0.102
HMIPEKEISYMMPDGFMPKELKIIHITESGRKQIYSAAHKPLDLVNVKAPFVPNTKVQIYINDVPIEELKI	-0.418
HMVVLNQEQIKFIDHYLQVSKVRYVDVRSELTDHIATAVELKMQDEALDFYEAFKAFIAVNKSQLLQRN	-1.45
HMDSRQIIAALQARYADETGITALKIKFNNVLGYFVDVPARYGDPLMKPPLSETFIHRQTLASNVRF	-0.0732
HMNSPSKVIDISQLRKGMFVQLDLGWMSHPFAVGSFKVSTDEQIQTLRGLGLSEVRYIPEKSDPA	-0.514
HMIDQNEDLLSGYIDEVLSQNPDKVNEYLKGKSGLIGFFMGQIKQKSATALDAALLKSQLETALEKLRIK	0.059
HMQYDESSQLGERFLNQALNALKADPDKVGDAQWEKLLKENSAKSRQEVLADIGLGKQLAIVIARELLS	-0.115
HMVPSTAVIFTELVSMRSEPATKSPVTHQLTKGTAITINEEKDGWYQVTDQTGNSGWIVKWAVKPTYFTNP	-0.0492
HMKLVESALSILEEAVDRDFHGNLGDAARYFDIPYQTIYSWLKSRKRVPSLRALEPVLEKLGVSFTT	-0.896
HMHPNPLTEQEIAVLKGIAQGLSNQEIADQLYLSNGTVRNYVTNILSKLDAGNRTEAANIAKESGW	0.143
